# Source: patent US20030028002A1, “Cyclin D binding factor, and uses thereof” (published 2003)
# T1: GST-DMP1 fusion protein (GST fused to residues 176-761 of DMP1)
# T1 chain: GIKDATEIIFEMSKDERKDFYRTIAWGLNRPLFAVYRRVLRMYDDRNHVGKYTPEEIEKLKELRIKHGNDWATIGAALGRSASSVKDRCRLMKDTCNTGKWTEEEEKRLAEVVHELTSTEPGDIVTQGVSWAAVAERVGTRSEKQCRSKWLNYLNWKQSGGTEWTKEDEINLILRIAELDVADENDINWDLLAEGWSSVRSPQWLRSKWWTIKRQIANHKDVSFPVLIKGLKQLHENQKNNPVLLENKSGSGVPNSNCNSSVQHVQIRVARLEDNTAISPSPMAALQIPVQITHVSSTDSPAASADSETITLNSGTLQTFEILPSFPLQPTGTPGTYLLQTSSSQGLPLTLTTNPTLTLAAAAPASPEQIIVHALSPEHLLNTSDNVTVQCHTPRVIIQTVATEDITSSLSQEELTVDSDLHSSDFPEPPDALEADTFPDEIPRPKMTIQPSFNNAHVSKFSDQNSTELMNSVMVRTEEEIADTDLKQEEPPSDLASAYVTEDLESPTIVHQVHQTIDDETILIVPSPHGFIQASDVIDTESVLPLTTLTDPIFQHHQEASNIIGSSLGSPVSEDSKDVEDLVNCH
# B1: cyclin D1-CDK4 complex (protein)
# chain 1: MEHQLLCCEVETIRRAYPDTNLLNDRVLRAMLKTEETCAPSVSYFKCVQKEIVPSMRKIVATWMLEVCEEQKCEEEVFPLAMNYLDRFLSLEPLKKSRLQLLGATCMFVASKMKETIPLTAEKLCIYTDNSIRPEELLQMELLLVNKLKWNLAAMTPHDFIEHFLSKMPEADENKQTIRKHAQTFVALCATDVKFISNPPSMVAAGSVVAAMQGLNLGSPNNFLSCYRTTHFLSRVIKCDPDCLRACQEQIEALLESSLRQAQQNVDPKATEEEGEVEEEAGLACTPTDVRDVDI
# chain 2: MAATRYEPVAEIGVGAYGTVYKARDPHSGHFVALKSVRVPNGGAAGGGLPVSTVREVALLRRLEAFEHPNVVRLMDVCATSRTDRDIKVTLVFEHIDQDLRTYLDKAPPPGLPVETIKDLMRQFLSGLDFLHANCIVHRDLKPENILVTSNGTVKLADFGLARIYSYQMALTPVVVTLWYRAPEVLLQSTYATPVDMWSVGCIFAEMFRRKPLFCGNSEADQLGKIFDLIGLPPEDDWPREVSLPRGAFAPRGPRPVQSVVPEMEESGAQLLLEMLTFNPHKRISAFRALQHSYLHKEESDAE
# B2: cyclin D3-CDK4 complex (protein)
# chain 1: MELLCCEGTRHAPRAGPDPRLLGDQRVLQSLLRLEERYVPRASYFQCVQKEIKPHMRKMLAYWMLEVCEEQRCEEDVFPLAMNYLDRYLSCVPTRKAQLQLLGTVCLLLASKLRETTPLTIEKLCIYTDQAVAPWQLREWEVLVLGKLKWDLAAVIAHDFLALILHRLSLPSDRQALVKKHAQTFLALCATDYTFAMYPPSMIATGSIGAAVLGLGACSMSADELTELLAGITGTEVDCLRACQEQIEAALRESLREAAQTAPSPVPKAPRGSSSQGPSQTSTPTDVTAIHL
# chain 2: B1 chain 2
# B3: cyclin D2-CDK4 complex (protein)
# chain 1: MELLCCEVDPVRRAVPDRNLLEDRVLQNLLTIEERYLPQCSYFKCVQKDIQPYMRRMVATWMLEVCEEQKCEEEVFPLAMNYLDRFLAGVPTPKTHLQLLGAVCMFLASKLKETIPLTAEKLCIYTDNSVKPQELLEWELVVLGKLKWNLAAVTPHDFIEHILRKLPQQKEKLSLIRKHAQTFIALCATDFKFAMYPPSMIATGSVGAAICGLQQDDEVNTLTCDALTELLAKITHTDVDCLKACQEQIEALLLNSLQQFRQEQHNAGSKSVEDPDQATTPTDVRDVDL
# chain 2: B1 chain 2
# Molecular target: GST-RB fusion protein [GST: P08515]
# Sequence (P08515 whole entry, looked up, the tested form may be a part): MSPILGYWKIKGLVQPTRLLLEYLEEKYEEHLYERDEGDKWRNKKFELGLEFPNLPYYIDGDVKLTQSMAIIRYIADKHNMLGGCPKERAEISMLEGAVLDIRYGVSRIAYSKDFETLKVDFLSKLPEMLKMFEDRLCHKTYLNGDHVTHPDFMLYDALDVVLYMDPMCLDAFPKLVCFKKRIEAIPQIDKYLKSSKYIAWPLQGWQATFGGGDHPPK
row,Protein,in vitro phosphorylation of the GST fusion protein by Sf9 lysates (32P)
1,B1,"Under equivalent conditions, GST-RB is always a preferred substrate"
2,B2,"Under equivalent conditions, GST-RB is always a preferred substrate"
3,B3,"Under equivalent conditions, GST-RB is always a preferred substrate"

# Molecular target: T1, GST-DMP1 fusion protein (GST fused to …)
row,Protein,in vitro phosphorylation of the GST fusion protein by Sf9 lysates (32P)
1,B1,lysates containing active cyclin D-CDK4 complexes phosphorylate both
2,B2,different preparations of cyclin D3-CDK4 are routinely more active than D2- or D1-containing holoenzymes in phosphorylating DMP1
3,B3,lysates containing active cyclin D-CDK4 complexes phosphorylate both
